# Values quoted from earlier work as cited in article PMC11548882.
# Target: EGFR (Homo sapiens) (UniProt P00533)
substance,measurement,value
EGF (from UniProt P01133),Kd,4 nM
